Common to all, as to experiment: cell-based or functional assay
The target of one experiment is HIV-1AD8 Env (HIV-1 AD8).
The target in experiment [1] is HIV-1BG505 Env (HIV-1 BG505).
Experiment [2] deals with HIV-1C1086 Env (HIV-1 C1086).
The target in experiment [3] is HIV-1CM244 Env (HIV-1 CM244).
The target of experiment [4] is HIV-1JRCSF Env (HIV-1 JRCSF) (UniProt P20871).
The next experiment has as its target HIV-1YU2 Env (HIV-1 YU2) (UniProt P35961).
In experiment [5] the target is HIV-1ZM109 Env (HIV-1 ZM109).

Chain of HIV-1JRCSF Env (HIV-1 JRCSF) (P20871 32-848 limits assumed): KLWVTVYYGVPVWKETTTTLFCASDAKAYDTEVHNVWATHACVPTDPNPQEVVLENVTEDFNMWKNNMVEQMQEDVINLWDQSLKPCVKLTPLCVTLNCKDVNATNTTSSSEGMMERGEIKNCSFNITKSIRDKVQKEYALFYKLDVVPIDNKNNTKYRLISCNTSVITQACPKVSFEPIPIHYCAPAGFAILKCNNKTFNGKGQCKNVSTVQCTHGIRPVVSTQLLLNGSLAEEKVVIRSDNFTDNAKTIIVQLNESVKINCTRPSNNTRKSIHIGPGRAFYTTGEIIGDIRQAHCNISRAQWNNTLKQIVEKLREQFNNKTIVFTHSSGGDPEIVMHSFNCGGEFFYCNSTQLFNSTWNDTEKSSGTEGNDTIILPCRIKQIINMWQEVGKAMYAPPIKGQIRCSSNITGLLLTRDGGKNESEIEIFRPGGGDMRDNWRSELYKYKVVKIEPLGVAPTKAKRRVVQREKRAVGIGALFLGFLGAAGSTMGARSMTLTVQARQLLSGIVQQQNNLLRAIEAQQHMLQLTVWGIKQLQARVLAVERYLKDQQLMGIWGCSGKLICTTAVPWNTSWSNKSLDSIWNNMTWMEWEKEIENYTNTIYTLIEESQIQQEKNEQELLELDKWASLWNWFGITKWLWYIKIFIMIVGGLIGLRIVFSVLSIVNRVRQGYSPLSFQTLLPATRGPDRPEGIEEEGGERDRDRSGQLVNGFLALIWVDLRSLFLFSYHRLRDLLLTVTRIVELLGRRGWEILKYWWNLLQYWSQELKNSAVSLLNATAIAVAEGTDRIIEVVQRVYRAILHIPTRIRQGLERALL
Chain of HIV-1YU2 Env (HIV-1 YU2) (P35961 32-843 limits assumed): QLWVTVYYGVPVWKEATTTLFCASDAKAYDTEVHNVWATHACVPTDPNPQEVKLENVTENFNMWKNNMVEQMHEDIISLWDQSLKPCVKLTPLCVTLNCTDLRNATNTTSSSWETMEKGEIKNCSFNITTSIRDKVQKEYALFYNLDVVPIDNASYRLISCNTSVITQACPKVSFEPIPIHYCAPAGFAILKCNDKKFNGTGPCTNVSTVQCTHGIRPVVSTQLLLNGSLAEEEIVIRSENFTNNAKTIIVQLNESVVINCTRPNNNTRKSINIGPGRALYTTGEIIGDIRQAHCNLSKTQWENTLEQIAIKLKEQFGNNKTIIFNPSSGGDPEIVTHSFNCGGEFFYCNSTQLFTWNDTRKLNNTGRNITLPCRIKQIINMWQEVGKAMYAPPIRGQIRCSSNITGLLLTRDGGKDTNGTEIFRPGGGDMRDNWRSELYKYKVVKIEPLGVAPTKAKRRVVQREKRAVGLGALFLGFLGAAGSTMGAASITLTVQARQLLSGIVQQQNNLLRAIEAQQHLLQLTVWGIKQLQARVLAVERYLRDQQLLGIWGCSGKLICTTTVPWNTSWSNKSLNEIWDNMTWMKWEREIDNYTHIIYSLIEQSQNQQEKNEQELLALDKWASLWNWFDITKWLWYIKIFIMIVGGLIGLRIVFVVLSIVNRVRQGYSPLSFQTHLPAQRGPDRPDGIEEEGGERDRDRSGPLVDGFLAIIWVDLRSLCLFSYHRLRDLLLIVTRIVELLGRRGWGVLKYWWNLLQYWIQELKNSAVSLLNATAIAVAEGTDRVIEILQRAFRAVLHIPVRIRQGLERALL

Take 17b-CD4 conjugate: the Neutralization IC50 is 0.877 mg/L with HIV-1AD8 Env (HIV-1 AD8); 2.64 mg/L in experiment [1]; 0.269 mg/L in experiment [2]; 0.609 mg/L in experiment [3]; 0.807 mg/L in experiment [4]; 0.082 mg/L in the experiment with HIV-1YU2 Env (HIV-1 YU2). For the same substance, the Neutralization IC50 in experiment [5] worked out at 0.113 mg/L.

(Values after patent publication US20240285790A1.)
